B1: CACACA_negctrl_site1568 (dsDNA)
DNA 1: TTTTTTATAAATCAAATGAAAAATAAACTATTCAGA
DNA 2: TCTGAATAGTTTATTTTTCATTTGATTTATAAAAAA
B2: CACACA_negctrl_site1598 (dsDNA)
DNA 1: TATTTTAACATGTTTTCAAAAATAAAACATATAAAT
DNA 2: ATTTATATGTTTTATTTTTGAAAACATGTTAAAATA
B3: CACACA_negctrl_site1701 (dsDNA)
DNA 1: TTTTTTCAATTTTTTTTAAATAAACCACAAAAAAAA
DNA 2: TTTTTTTTGTGGTTTATTTAAAAAAAATTGAAAAAA
B4: CACACA_negctrl_site884 (dsDNA)
DNA 1: TATTAATCTTTTTTTAAACAAAAAATTAAGCAAATT
DNA 2: AATTTGCTTAATTTTTTGTTTAAAAAAAGATTAATA
B5: CACACA_site8658 (dsDNA)
DNA 1: AACGAAAGAAAAAAAGCACACACAGTTTTGAGCAAT
DNA 2: ATTGCTCAAAACTGTGTGTGCTTTTTTTCTTTCGTT
B6: CACACA_negctrl_site170 (dsDNA)
DNA 1: TTTGTTAAAAATATATTATGAATAAAAATATATTTT
DNA 2: AAAATATATTTTTATTCATAATATATTTTTAACAAA
B7: CACACA_site651 (dsDNA)
DNA 1: ATACATATAGGATGCACACATAATTCAAATACAATA
DNA 2: TATTGTATTTGAATTATGTGTGCATCCTATATGTAT
B8: CACACA_site1293 (dsDNA)
DNA 1: CACACCCACAAAAACACACACAAAGGTGTTCTTATA
DNA 2: TATAAGAACACCTTTGTGTGTGTTTTTGTGGGTGTG
B9: CACACA_negctrl_site1012 (dsDNA)
DNA 1: ATAATTTCTATTTCACAAAAAAAAAAAAAAAAAAAA
DNA 2: TTTTTTTTTTTTTTTTTTTTGTGAAATAGAAATTAT
B10: CACACA_negctrl_site8 (dsDNA)
DNA 1: AAATTATATATAATAAATAATTTCTTTTTCTAAAAG
DNA 2: CTTTTAGAAAAAGAAATTATTTATTATATATAATTT
B11: CACACA_negctrl_site775 (dsDNA)
DNA 1: TTGTATCTTCATTTTATCAGAAAAAAAAAAAAAAAT
DNA 2: ATTTTTTTTTTTTTTTCTGATAAAATGAAGATACAA
B12: CACACA_negctrl_site1118 (dsDNA)
DNA 1: ATTATCAAAAAAAAAAAAAAAAAAAAAAAAAAAAAA
DNA 2: TTTTTTTTTTTTTTTTTTTTTTTTTTTTTTGATAAT
B13: CACACA_negctrl_site65 (dsDNA)
DNA 1: ATTAAAAATTATATTTTATAAAAATTAAAAGAAATA
DNA 2: TATTTCTTTTAATTTTTATAAAATATAATTTTTAAT
B14: CACACA_site5877 (dsDNA)
DNA 1: TATAGCATATCTCACACACACATAATGAATATTATA
DNA 2: TATAATATTCATTATGTGTGTGTGAGATATGCTATA
B15: CACACA_site841 (dsDNA)
DNA 1: GGCATGACTATCTGCACACATAAAAATAAGAAATAC
DNA 2: GTATTTCTTATTTTTATGTGTGCAGATAGTCATGCC
B16: CACACA_negctrl_site442 (dsDNA)
DNA 1: TGGTTTCAATAATTAATAAAATATATTATTGTGAAA
DNA 2: TTTCACAATAATATATTTTATTAATTATTGAAACCA
B17: CACACA_negctrl_site1467 (dsDNA)
DNA 1: TTATATAATGACAAAAAAAAAAAAAAAAAAAAAAAA
DNA 2: TTTTTTTTTTTTTTTTTTTTTTTTGTCATTATATAA
B18: CACACA_site2704 (dsDNA)
DNA 1: GCCATTGTACCATCCACACACATATATATATGTATA
DNA 2: TATACATATATATATGTGTGTGGATGGTACAATGGC
B19: CACACA_negctrl_site169 (dsDNA)
DNA 1: TTATTTCTTCAGAAAAAATTAAAAAATTAAACAATA
DNA 2: TATTGTTTAATTTTTTAATTTTTTCTGAAGAAATAA
B20: CACACA_site2284 (dsDNA)
DNA 1: AAAAAAAAAAAAGGCACACAAACATATGTAGACATA
DNA 2: TATGTCTACATATGTTTGTGTGCCTTTTTTTTTTTT
B21: CACACA_site3522 (dsDNA)
DNA 1: ATATAAAATAGACACGCACACAAAAAAAAAAAAAAA
DNA 2: TTTTTTTTTTTTTTTGTGTGCGTGTCTATTTTATAT
B22: CACACA_negctrl_site473 (dsDNA)
DNA 1: TATTTAATTATATAAAATTAAATTTTTAATTCTTCC
DNA 2: GGAAGAATTAAAAATTTAATTTTATATAATTAAATA
B23: CACACA_site9215 (dsDNA)
DNA 1: ATATATATATATATTCCACACACACCCAAAAAAAAA
DNA 2: TTTTTTTTTGGGTGTGTGTGGAATATATATATATAT
B24: CACACA_negctrl_site797 (dsDNA)
DNA 1: AAATGTATAATTTTTTAATACACTTATTTAAAATAA
DNA 2: TTATTTTAAATAAGTGTATTAAAAAATTATACATTT
B25: CACACA_negctrl_site333 (dsDNA)
DNA 1: GAATGAATGATAAATTTTTTTTTCTTTTTTTTTTTG
DNA 2: CAAAAAAAAAAAGAAAAAAAAATTTATCATTCATTC
B26: CACACA_site2529 (dsDNA)
DNA 1: ACCTAAAATAACTACACACACATAAAAAAAAAAAAA
DNA 2: TTTTTTTTTTTTTATGTGTGTGTAGTTATTTTAGGT
B27: CACACA_negctrl_site108 (dsDNA)
DNA 1: TTTTTAATTTAAAAAAATAATATTTTATATTCCGAA
DNA 2: TTCGGAATATAAAATATTATTTTTTTAAATTAAAAA
B28: CACACA_negctrl_site861 (dsDNA)
DNA 1: TTTTAAAAATTAAAAAAATTAAATGTAAAAAAATGA
DNA 2: TCATTTTTTTACATTTAATTTTTTTAATTTTTAAAA
B29: CACACA_negctrl_site1706 (dsDNA)
DNA 1: TTACACATATTTTTAATTATTCTGAATTCAAAAAAA
DNA 2: TTTTTTTGAATTCAGAATAATTAAAAATATGTGTAA
B30: CACACA_negctrl_site159 (dsDNA)
DNA 1: TTTTTTTATTATTCTTATATAAAAATTTTTTTTAAT
DNA 2: ATTAAAAAAAATTTTTATATAAGAATAATAAAAAAA
B31: CACACA_site8178 (dsDNA)
DNA 1: TACATATAAACAATAACACACACCTAGGTACATGGA
DNA 2: TCCATGTACCTAGGTGTGTGTTATTGTTTATATGTA
B32: CACACA_site1322 (dsDNA)
DNA 1: CACGAACACAAACACAAACACACATCATATATATAT
DNA 2: ATATATATATGATGTGTGTTTGTGTTTGTGTTCGTG
B33: CACACA_negctrl_site1629 (dsDNA)
DNA 1: TTTTTCTTTCTATTTATCAATATTAAAAAAAAAAAA
DNA 2: TTTTTTTTTTTTAATATTGATAAATAGAAAGAAAAA
B34: CACACA_negctrl_site736 (dsDNA)
DNA 1: TACTTATATTATTTTATTATTAAATTTAAAACGAAA
DNA 2: TTTCGTTTTAAATTTAATAATAAAATAATATAAGTA
B35: CACACA_negctrl_site1823 (dsDNA)
DNA 1: TATTTCATCTTATTTTAGGAAAAACTAATATATAAG
DNA 2: CTTATATATTAGTTTTTCCTAAAATAAGATGAAATA
B36: CACACA_site1334 (dsDNA)
DNA 1: ATTACATACACGCGCACACACAAAAAAAAAAAAAAA
DNA 2: TTTTTTTTTTTTTTTGTGTGTGCGCGTGTATGTAAT
B37: CACACA_negctrl_site344 (dsDNA)
DNA 1: TTTTGAATATGGATCTTATATATATTAAATAAATAA
DNA 2: TTATTTATTTAATATATATAAGATCCATATTCAAAA
B38: CACACA_site8439 (dsDNA)
DNA 1: AGGTGAGCTCAGACTACACACACAAAGAAAAAAATA
DNA 2: TATTTTTTTCTTTGTGTGTGTAGTCTGAGCTCACCT
B39: CACACA_site1127 (dsDNA)
DNA 1: TATTTTTCCATATGCACACACACCGTATATATAATA
DNA 2: TATTATATATACGGTGTGTGTGCATATGGAAAAATA
B40: CACACA_site4122 (dsDNA)
DNA 1: AAAACAAACACATTTACACACATAAATAAATCAATT
DNA 2: AATTGATTTATTTATGTGTGTAAATGTGTTTGTTTT
B41: CACACA_negctrl_site82 (dsDNA)
DNA 1: TTTTGTTTCTATATAAGATGGAAATATAAACTTGTA
DNA 2: TACAAGTTTATATTTCCATCTTATATAGAAACAAAA
B42: CACACA_negctrl_site1281 (dsDNA)
DNA 1: TAAAATTAAATGAAATCATTATTCATTTTTATTTTA
DNA 2: TAAAATAAAAATGAATAATGATTTCATTTAATTTTA
B43: CACACA_site8515 (dsDNA)
DNA 1: ATAATATATATACAAACACACAATTGCGTCCACATT
DNA 2: AATGTGGACGCAATTGTGTGTTTGTATATATATTAT
B44: CACACA_site1627 (dsDNA)
DNA 1: AAGAAAAAGATGCGCATACACACAGATGAATAACAA
DNA 2: TTGTTATTCATCTGTGTGTATGCGCATCTTTTTCTT

Target: T1, AP2-LT D1 (Plasmodium falciparum, UniProt Q8IAM1 2520-2577)
T1 sequence: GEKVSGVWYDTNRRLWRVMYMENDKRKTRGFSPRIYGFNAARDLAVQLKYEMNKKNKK
Test: gcPBM; about 25 ug protein; PBS, 1% milk, 0.2 mg/ml BSA, salmon testes DNA, 0.03% Triton X-100
Conditions: tags: N-terminal GST (pGEX-4T-1), kept; label: surface-attached array probe

Binder	binding signal
B1	8.3 ln median PBM intensity, better of two orientations
B2	8.55 ln median PBM intensity, better of two orientations
B3	8.15 ln median PBM intensity, better of two orientations
B4	8.28 ln median PBM intensity, better of two orientations
B5	9.6 ln median PBM intensity, better of two orientations
B6	8.37 ln median PBM intensity, better of two orientations
B7	9.54 ln median PBM intensity, better of two orientations
B8	9.62 ln median PBM intensity, better of two orientations
B9	8.47 ln median PBM intensity, better of two orientations
B10	8.42 ln median PBM intensity, better of two orientations
B11	8.43 ln median PBM intensity, better of two orientations
B12	8.29 ln median PBM intensity, better of two orientations
B13	8.5 ln median PBM intensity, better of two orientations
B14	9.72 ln median PBM intensity, better of two orientations
B15	9.74 ln median PBM intensity, better of two orientations
B16	8.47 ln median PBM intensity, better of two orientations
B17	8.49 ln median PBM intensity, better of two orientations
B18	9.64 ln median PBM intensity, better of two orientations
B19	8.53 ln median PBM intensity, better of two orientations
B20	9.56 ln median PBM intensity, better of two orientations
B21	9.59 ln median PBM intensity, better of two orientations
B22	8.5 ln median PBM intensity, better of two orientations

Binder	binding signal
B23	9.85 ln median PBM intensity, better of two orientations
B24	8.49 ln median PBM intensity, better of two orientations
B25	8.4 ln median PBM intensity, better of two orientations
B26	9.65 ln median PBM intensity, better of two orientations
B27	8.25 ln median PBM intensity, better of two orientations
B28	8.44 ln median PBM intensity, better of two orientations
B29	8.38 ln median PBM intensity, better of two orientations
B30	8.48 ln median PBM intensity, better of two orientations
B31	9.55 ln median PBM intensity, better of two orientations
B32	9.81 ln median PBM intensity, better of two orientations
B33	8.1 ln median PBM intensity, better of two orientations
B34	8.39 ln median PBM intensity, better of two orientations
B35	8.32 ln median PBM intensity, better of two orientations
B36	9.87 ln median PBM intensity, better of two orientations
B37	8.27 ln median PBM intensity, better of two orientations
B38	9.69 ln median PBM intensity, better of two orientations
B39	9.79 ln median PBM intensity, better of two orientations
B40	9.58 ln median PBM intensity, better of two orientations
B41	8.52 ln median PBM intensity, better of two orientations
B42	8.47 ln median PBM intensity, better of two orientations
B43	9.67 ln median PBM intensity, better of two orientations
B44	9.7 ln median PBM intensity, better of two orientations

— paper PMC11417369, “DNA sequence and chromatin differentiate sequence-specific transcription factor binding in the human malaria parasite Plasmodium falciparum”
